Assay results from publication PMC3348462.

target: Glu148 (UniProt position 148, MVLGREGPTVQ); experiment: kinetics; details: membrane-reconstituted, turning over in Cl-/36Cl- exchange (Cl- present)

Q: For “CLC-ec1 (H+/Cl- exchange transporter ClcA), wild type (Escherichia coli)”, which pKa is on record?
A: 6.2±0.1

Q: With CLC-ec1 E203Q (Escherichia coli; E203Q) as the substance, how does the pKa read?
A: 6.2±0.5

Q: With CLC-ec1 Y445L (Escherichia coli; Y445L) as the substance, how does the pKa read?
A: 4.7±0.1
